# Laboratory results reported in patent publication US20070243589A1 (Pfizer, published 2007).
# T1: human IL-22 (human, UniProt Q9GZX6 34-179)
# T1 sequence: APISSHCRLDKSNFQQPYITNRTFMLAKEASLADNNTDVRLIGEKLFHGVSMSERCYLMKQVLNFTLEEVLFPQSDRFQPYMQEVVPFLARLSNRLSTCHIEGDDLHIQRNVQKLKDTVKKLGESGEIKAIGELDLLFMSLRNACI
# T2: IL-26 (human, UniProt Q9NPH9)
# T2 construct: coated on the ELISA plate at 1 µg/ml; also called human IL-26
# T2 sequence (cytokine, looked up): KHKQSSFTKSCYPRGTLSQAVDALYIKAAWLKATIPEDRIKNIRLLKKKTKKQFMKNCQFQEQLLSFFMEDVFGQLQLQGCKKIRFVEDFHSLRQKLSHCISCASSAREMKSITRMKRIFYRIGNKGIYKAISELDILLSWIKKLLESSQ
# T3: biotinylated IL-22 with an N-terminal His/FLAG tag (bio.IL-22H/F) (human, UniProt Q9GZX6 34-179, biotinylated (site not stated))
# T3 construct: not shown: N-terminal His/FLAG tag
# T3 sequence: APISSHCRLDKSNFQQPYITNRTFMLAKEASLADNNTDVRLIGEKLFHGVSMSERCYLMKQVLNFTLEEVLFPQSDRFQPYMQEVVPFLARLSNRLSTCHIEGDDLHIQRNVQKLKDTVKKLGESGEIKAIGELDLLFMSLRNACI
# Key:
# human IL-22 [1] = target: T1, human IL-22; assay: cell-based or functional assay
# human IL-22 [2] = target: T1, human IL-22; assay: cell-based or functional assay; remark: listed apart in the source
# BSA = target: T4, BSA (bovine, UniProt P02769); assay: ELISA: wells labelled BSA, IgG at 1 µg/ml, HRP anti-human IgG, A450
# T4 construct: background wells labelled BSA; also called bovine serum albumin
# T4 sequence (P02769 25-607 limits assumed): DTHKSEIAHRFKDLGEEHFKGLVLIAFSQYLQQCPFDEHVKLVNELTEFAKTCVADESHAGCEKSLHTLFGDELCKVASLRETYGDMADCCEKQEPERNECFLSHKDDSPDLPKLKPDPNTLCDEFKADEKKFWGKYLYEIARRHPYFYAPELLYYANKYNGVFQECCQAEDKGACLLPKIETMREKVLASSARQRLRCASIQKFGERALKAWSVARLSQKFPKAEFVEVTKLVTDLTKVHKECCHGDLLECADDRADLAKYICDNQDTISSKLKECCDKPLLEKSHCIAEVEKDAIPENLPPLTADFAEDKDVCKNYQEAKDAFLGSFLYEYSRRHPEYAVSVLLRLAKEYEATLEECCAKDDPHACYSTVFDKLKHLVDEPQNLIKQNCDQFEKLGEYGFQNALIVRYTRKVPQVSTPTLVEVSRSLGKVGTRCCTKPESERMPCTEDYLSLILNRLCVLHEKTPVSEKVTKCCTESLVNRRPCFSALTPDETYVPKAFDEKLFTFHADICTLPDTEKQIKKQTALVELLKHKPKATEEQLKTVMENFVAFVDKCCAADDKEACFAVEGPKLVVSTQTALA
# Experimental: (§1) Cross species reactivity of germlined and non-germlined optimized antibodies were determined as follows: ELISA plates (Costar, Cat. #3590) were coated overnight with 1 μg/ml of rat, mouse, or human IL-22 or human IL-26 in PBS buffer. Plates were washed with PBST buffer (0.05% Tween20 in PBS) 3 times, then blocked with 1% BSA (Sigma A8918)/PBST for 1 hr at RT. Antibodies were added at 1 μg/ml, incubated 1 hr at 25° C. […] The plates were incubated for 1 hour at 25° C., then washed with PBST, and developed with TMB (KPL, Cat. #50-76-04). Reaction was stopped with 0.18 M H₂S0₄. Plates were read at OD 450 nm.
# IL-26 = target: T2, IL-26; assay: ELISA: plate coated with 1 µg/ml human IL-26, IgG at 1 µg/ml, HRP anti-human IgG, A450
# Experimental: as §1
# [3] = target: T3, biotinylated IL-22 with an N-terminal …; assay: IL-22 receptor complex inhibition assay (bio.IL-22H/F binding to IL-22 receptor complex, DELFIA), scFv
# Experimental: Both the IL-22/IL-22R binding assay (described above) and the IL-22/IL-22 receptor complex assay (described below) were used. ScFv concentrations were titrated in order to establish the clone potencies as measured by assay IC₅₀ values. These were determined using GraphPad Prism software and four-parameter logistic equation curve fitting.
# Microtiter plates were coated with an IL-22 receptor complex antibody (1 μg/ml in PBS), and incubated for 1.5 hours at room temperature. Plates were washed three times in PBST, and blocked for 1 hour at room temperature with 2% MPBS. After a further 3 washes, diluted cell conditioned medium containing an IL-22 receptor complex was added and incubated overnight at 4° C. Crude scFv supernatants were prepared as described above. The following day, 25 μl of diluted scFv sample and 25 μl of bio.IL-22H/F (6 ng/ml) were added to the washed plates, and incubated for 1.5 hours at room temperature. Plates were washed 3 times in PBST, then binding of bio.IL-22H/F to the IL-22 receptor complex was detected with Europium-Streptavidin and the DELFIA® reagent kit (PerkinElmer). Time Resolved Fluorescence was measured using a Victor 2™ Plate Reader (Perkin Elmer).
Binder,IC50 of IgG in BaF3-IL-22 proliferation assay (human IL-22 [1]),IC50 (pM) of non-germlined IgG in BaF3-IL-22R proliferation assay (human IL-22 [2]),binding result (BSA),binding result (IL-26),IC50 (pM) of germlined IgG in BaF3-IL-22R proliferation assay (human IL-22 [2]),IC50 [3]
"166B06 IgG (non-germlined) (antibody, V domains shown) VH: EVQLVQSGAEVKKPGASVKVSCQASGYTFSDYYIHWVRQTPGQGFEWMGWVNPDTGGTRYAQKFQGWVTMTRDMSNTTAYMELPRLRDDDTAVYYCARDLTGFDPFDIWGQGTLVTVSS VL: QSVLTQPPSVSVAPGKTATITCGGNNFRNKRVHWYQQRPGQAPVLVIYYDSDRPSGIPERFSGSRSGNTATLTISRVEAGDEADFYCQVWDLFNDNGVFGGGTKLTVLG",0.071 nM,109 pM,,,,
"166B06 germlined IgG (antibody, V domains shown) VH: QVQLVQSGAEVKKPGASVKVSCKASGYTFSDYYIHWVRQAPGQGLEWMGWVNPDTGGTRYAQKFQGRVTMTRDMSISTAYMELSRLRSDDTAVYYCARDLTGFDPFDIWGQGTLVTVSS VL: SSVLTQPPSVSVAPGKTARITCGGNNFRNKRVHWYQQKPGQAPVLVIYYDSDRPSGIPERFSGSRSGNTATLTISRVEAGDEADYYCQVWDLFNDNGVFGGGTKLTVLG",,,no binding (tested: 1 µg/ml (single concentration)),no binding (tested: 1 µg/ml (single concentration)),169 pM,
"375G06 IgG (non-germlined) (antibody, V domains shown, IgG) VH: EVQLVQSGAEVKKPGASVKVSCQASGYTFSDYYIHWVRQTPGQGFEWMGWVNPDTGGTRYAQKFQGWVTMTRDMSNTTAYMELPRLRDDDTAVYYCARDLTGYDYYDRWGQGTLVTVSS VL: QSVLTQPPSMSVAPGKTATITCGGNNFRNKRVHWYQQRPGQAPVLVIYYDSDRPSGIPERFSGSRSGNTATLTISRVEAGDEADFYCQVWDFLADEAMFGGGTKLTVL",0.1 nM,,no binding (tested: 1 µg/ml (single concentration)),no binding (tested: 1 µg/ml (single concentration)),,
"376B10 IgG (non-germlined) (antibody, V domains shown, IgG) VH: EVQLVQSGAEVKKPGASVKVSCQASGYTFSDYYIHWVRQTPGQGFEWMGWVNPDTGGTRYAQKFQGWVTMTRDMSNTTAYMELPGLRDDDTAVYYCARDLTGYDQYTAWGQGTLVTVSS VL: QSVLTQPPSVSVAPGKTATITCGGNNFRNKRVHWYQQRPGQAPVLVIYYDSDRPSGIPERFSGSRSGNTATLTISRVEAGDEADFYCSTFDPFTDRPLFGGGTKLTVLG",0.119 nM,,no binding (tested: 1 µg/ml (single concentration)),no binding (tested: 1 µg/ml (single concentration)),,
"166G05 IgG (non-germlined) (antibody, V domains shown) VH: EVQLVQSGAEVKKPGASVKVSCQASGYTFSDYYIHWVRQTPGQGFEWMGWVNPDTGGTRYAQKFQGWVTMTRDMSNTTAYMELPRLRDDDTAVYYCARDLTGFDPFDIWGQGTLVTVSS VL: QSVLTQPPSVSVAPGKTATITCGGNNFRNKRVHWYQQRPGQAPVLVIYYDSDRPSGIPERFSGSRSGNTATLTISRVEAGDEADFYCQVWDFLTDSGSFGGGTKLTVLG",0.097 nM,366 pM,,,,
"166G05 germlined IgG (antibody, V domains shown) VH: QVQLVQSGAEVKKPGASVKVSCKASGYTFSDYYIHWVRQAPGQGLEWMGWVNPDTGGTRYAQKFQGRVTMTRDMSISTAYMELSRLRSDDTAVYYCARDLTGFDPFDIWGQGTLVTVSS VL: SSVLTQPPSVSVAPGKTARITCGGNNFRNKRVHWYQQKPGQAPVLVIYYDSDRPSGIPERFSGSRSGNTATLTISRVEAGDEADYYCQVWDFLTDSGSFGGGTKLTVLG",,,no binding (tested: 1 µg/ml (single concentration)),no binding (tested: 1 µg/ml (single concentration)),109 pM,
"367D04 IgG (non-germlined) (antibody, V domains shown, IgG) VH: EVQLVESGGGVVRPGGSLRLSCAASGFTFDDYGMNWVRQAPGKGLEWVSGVNWNGGTRDYAASVKGRFTISRDNAKNSLYLQMNSLRAEDTALYYCARGWYSGSPWSLGHWGRGTLVTVSS VL: QAVLTQPSSVSGSPGQSVTISCTGASGDVGAYNFVSWYQQHPGKTPKLIIYDVNKRPSGVSNRFSGSKSGNTASLTISRLQAEDESDYYCSSYTSRYTTEFGGGTKVTVLG",0.126 nM,,no binding (tested: 1 µg/ml (single concentration)),no binding (tested: 1 µg/ml (single concentration)),,
"087B03 germlined IgG (antibody, V domains shown) VH: EVQLVESGGGVVRPGGSLRLSCAASGFTFDDYGMNWVRQAPGKGLEWVSGVNWNGGTRDYAASVKGRFTISRDNAKNSLYLQMNSLRAEDTALYHCARGWYSGAAWNMGYWGRGTLVTVSS VL: QAALTQPASVSGSPGQSITISCTGASGDVGAYNFVSWYQQHPGKAPKLIIYDVNKRPSGVSNRFSGSKSGNTASLTISGLQAEDEADYYCSSYTSTFSVVFGGGTKLTVLG",,,no binding (tested: 1 µg/ml (single concentration)),no binding (tested: 1 µg/ml (single concentration)),118 pM,
"062A09 IgG (non-germlined) (antibody, V domains shown) VH: QVQLVESGAEVKKPGASVKVSCKASGYTFTSYGISWVRQAPGQGLEWMGWVSAYTGNTNYAQKFQGRVTMTTDTSTSTAYMELRGLRSDDTAVYYCARDRGYYDAFDIWGQGTLVTVSS VL: DIQMTQSPSTLSASIGDRVTITCRASEGIYHWLAWYQQKPGKAPKLLIYKASSLASGAPSRFSGSGFGTDFTLTISSLQPDDFATYYCQQMGEYNATIGGGTKLEIKR",0.083 nM,108 pM,,,,
"354A08 germlined IgG (antibody, V domains shown) VH: QVQLVQSGAEVKKPGASVKVSCKASGYTFTDYYMHWVRQAPGQGLEWVGWINPYTGGAFYAQKFRGRVTMTRDTSISTAYMELSRLRSDDTAVYYCAREPERFGDSTGQVWGRGTLVTVSS VL: QAVLTQPPSVSGAPGQRVTISCTGSSSNIGAGYGVHWYQQLPGTAPKLLIYGNSNRPSGVPDRFSGSKSGTSASLAITGLQAEDEADYYCYHWDKEQSGYVFGGGTQLTVLG",0.079 nM,,no binding (tested: 1 µg/ml (single concentration)),no binding (tested: 1 µg/ml (single concentration)),79 pM,
"356A11 germlined IgG (antibody, V domains shown) VH: QVQLVQSGAEVKKPGASVKVSCKASGYTFTNYYMHWVRQAPGQGLEWVGWINPYTGSAFYAQKFRGRVTMTRDTSISTAYMELSRLRSDDTAVYYCAREPEKFDSDDSDVWGRGTLVTVSS VL: QAVLTQPPSVSGAPGQRVTISCTGSSSNIGAGYGVHWYQQLPGTAPKLLIYGDSNRPSGVPDRFSGSKSGTSASLAITGLQAEDEADYYCQSYDNSLSGYVFGGGTQLTVLG",0.053 nM,,no binding (tested: 1 µg/ml (single concentration)),no binding (tested: 1 µg/ml (single concentration)),53 pM,
GIL45 scFv (non-germlined parent) (scFv) scFv: QMQLVQSGGGVVQPGRSLRLSCAASGFTFSNYGMYWVRQAPGKGLEWVAHIWYDGSNEKYADSVKGRMTVSRDNSRNTLYLQMNSLRAEDTAVYYCATEQHWITAFDIWGKGTLVTVSSGGGGSGAGGSGGGGSQSVLTQPASVSGSPGQSITISCTGTSSDVGGYNYVSWYQQHPGKAPKLMIYEGSKRPSGVSNRFSGSKSGNTASLTISGLQAEDEADYYCSSYTTRSTRVFGGGTKLTVLGAAAH,,,,,,358 nM
